Where a chain is given by its changes, count along the chain named.
B1: #23-57-137-1: mouse monoclonal antibody against human PTHrP (1-34) from hybridoma #23-57-137-1 (FERM BP-5631) (antibody, V domains shown)
VH: EVQLVESGGDLVKPGGSLKLSCAASGFTFSSYGMSWIRQTPDKRLEWVATISSGGSYTYYPDSVKGRFTISRDNAKNTLYLQMSSLKSEDTAMFYCARQTTMTYFAYWGQGTLVTVSA
VL: QLVLTQSSSASFSLGASAKLTCTLSSQHSTYTIEWYQQQPLKPPKYVMDLKQDGSHSTGDGIPDRFSGSSSGADRYLSISNIQPEDEAMYICGVGDTIKEQFVYVFGGGTKVTVLGQP
B2: antibody having both a humanized H-chain version “a” and a chimeric L-chain: antibody with humanized #23-57-137-1 H-chain version a and chimeric L-chain (antibody, V domains shown)
VH: QVQLVESGGGVVQPGRSLRLSCAASGFTFSSYGMSWVRQAPGKGLEWVATISSGGSYTYYPDSVKGRFTISRDNSKNTLYLQMNSLRAEDTAVYYCARQTTMTYFAYWGQGTLVTVSS
VL: B1 VL
B3: m/hMBC1La λ: hybrid antibody: humanized H-chain with mouse FR1,2/human FR3,4 hybrid L-chain (from version a) (antibody, V domains shown)
VH: B2 VH
VL: QLVLTQSSSASFSLGASAKLTCTLSSQHSTYTIEWYQQQPLKPPKYVMDLKQDGSHSTGDGIPDRFSGSSSGAERYLTISSLQSEDEADYYCGVGDTIKEQFVYVFGGGTKLTVL
B4: hmmMBC1L(λ): hybrid antibody: humanized H-chain with human FR1/mouse FR2,3,4 hybrid L-chain (antibody, V domains shown)
VH: B2 VH
VL: QLVLTQSPSASASLGASVKLTCTLSSQHSTYTIEWYQQQPLKPPKYVMDLKQDGSHSTGDGIPDRFSGSSSGADRYLSISNIQPEDEAMYICGVGDTIKEQFVYVFGGGTKVTVL
B5: m/hMBC1Ldλ: hybrid antibody: humanized H-chain with mouse FR1,2/human FR3,4 hybrid L-chain (from version d, 87 isoleucine) (antibody, V domains shown)
VH: B2 VH
VL: B3 VL with Y91I

Tests used:
PTHrP (1-34) [1] = molecular target: T1, PTHrP (1-34) (Homo sapiens, UniProt P12272); assay: Hybridoma screening by solid phase RIA; format: binding; design: mixed with an equivalent amount of 4 ng/ml of PTHrP (1-34); host or cells: peptide added from outside to rat ROS17/2.8-5 cells; conditions: hybridoma culture supernatant
Description: The screening of hybridomas was performed by determining the presence of PTHrP-recognition antibodies in the culture supernatant of the wells in which cell growth had been observed in HAT medium, by solid phase RIA method. The hybridomas were collected from the wells in which the binding ability to the PTHrP-recognition antibodies had been confirmed. The hybridomas thus obtained was suspended into RPMI-1640 medium containing 15% FCS supplemented with OPI-supplement (Sigma), followed by unification of the hybridomas by limiting dilution method.

PTHrP (1-34) [2] = molecular target: T1, PTHrP (1-34); assay: ELISA, determination of antigen-binding ability; design: coating buffer supplemented with 1 μg/ml of human PTHrP (1-34) (Peptide Research Institute); purchased Peptide Research Institute; conditions: antibodies expressed in COS-7 cells; H-chain humanized version a
Description: An ELISA plate for the determination of antigen-binding ability was prepared as follows. Each well of a 96-well ELISA plate was coated with 100 μl of a coating buffer supplemented with 1 μg/ml of human PTHrP (1-34) (Peptide Research Institute), and then blocked with 200 μl of a dilution buffer. Each well was added with each of the serial dilutions of the COS-7 cell culture supernatant in which each of the chimeric antibodies had been expressed, or added with each of the serial dilutions of each of the chimeric antibodies per se in a purified form. After the plate was incubated at room temperature and washed with PBS-Tween 20, each well of the plate was added with 100 μl of a solution of alkaline phosphatase-conjugated goat anti-human IgG antibodies (TAGO). After the plate was incubated at room temperature and washed with PBS-Tween 20, each well of the plate was added with 1 mg/ml of a substrate solution (“Sigma 104”, p-nitrophenylphosphoric acid, SIGMA). The solution was measured on its absorbance at 405 nm using Microplate Reader (Bio Rad).
An ELISA plate for determining antigen-binding ability was prepared as follows. Each well of a 96-well ELISA plate (Maxisorp, NUNC) was coated with 100 μl of a coating buffer containing 1 μg/ml of human PTHrP (1-34) and then blocked with 200 μl of a dilution buffer. Subsequently, each well was added with each of the serial dilutions of the COS-7 cell culture supernatant in which each of the hybrid antibodies and humanized antibodies was expressed, or added with each of the serial dilutions of each of the hybrid antibodies and humanized antibodies in a purified form. The plate was incubated at room temperature and washed with PBS-Tween 20. Subsequently, each well was added with 100 μl of alkaline phosphatase-conjugated goat anti-human IgG antibody (TAGO). The plate was incubated at room temperature and washed with PBS-Tween 20. Subsequently, each well was added with 1 mg/ml of a substrate solution (“Sigma 104”, p-nitrophenylphosphoric acid, SIGMA). The solution was measured on its absorbance at 405 nm using Microplate Reader (Bio Rad).

Molecule | binding ability to PTHrP (1-34) (PTHrP (1-34) [1]) | antigen-binding (PTHrP-binding) activity compared with the chimeric #23-57-137-1 antibody (PTHrP (1-34) [2])
B1 | high binding ability | –
B2 | – | the same level of PTHrP-binding activity as that of a chimeric antibody
B3 | – | the same level of antigen-binding activity as that of the chimeric #23-57-137-1 antibody
B4 | – | the same level of antigen-binding activity as that of the chimeric #23-57-137-1 antibody
B5 | – | the same level of antigen-binding activity as that of the chimeric #23-57-137-1 antibody

From patent US20030049211A1, “Remedies and preventives for dental diseases” (priority 2000, published 2003)
